Measured values published in article PMC12095920.

B1: apical domain of human CCT7, Q99832 207-376 (domain or fragment)
chain: DSQLVAGVAFKKTFSYAGFEMQPKKYHNPKIALLNVELELKAEKDNAEIRVHTVEDYQAIVDAEWNILYDKLEKIHHSGAKVVLSKLPIGDVATQYFADRDMFCAGRVPEEDLKRTMMACGGSIQTSVNALSADVLGRCQVFEETQIGGERYNFFTGCPKAKTCTFILRG

Tests used:
[1] = target: tau^4R construct (four microtubule-binding repeat domains of human tau) (human) (UniProt P10636)
[2] = target: tau^4R construct (four microtubule-binding repeat domains of human tau) (human), P10636
tau^4R construct (four microtubule-binding repeat domains of human tau) (human), P10636, sequence (P10636 561-689): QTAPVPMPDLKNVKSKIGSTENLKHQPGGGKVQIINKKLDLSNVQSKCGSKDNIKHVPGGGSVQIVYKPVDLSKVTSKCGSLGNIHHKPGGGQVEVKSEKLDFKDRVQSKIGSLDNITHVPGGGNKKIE

Row | ThT fluorescence after 23 h in the presence of apiCCT3, relative to tau^4R alone (not shown) [1] [%] | ThT fluorescence after 23 h in the presence of apiCCT7, relative to tau^4R alone [2] [%] | Molecule
1 | 2.5 | – | apical domain of human CCT3 (from UniProt P49368 223-383) (domain or fragment)
2 | – | 30 | B1
